Patent publication US20050226876A1 (Hoffmann-La Roche, published 2005)

Assays:
[1] = biological target: T1, Fcγ receptor on human NK cells (FcγRIII) (human, UniProt P08637 17-254); assay: FACS on NK cells from human blood
T1 construct: whole, on cells; also called FcγR presented on NK cells

[2] = biological target: T2, human complement factor C1q (human, UniProt P02745 23-245; P02746 28-253; P02747 29-245); assay: C1q ELISA, antibody coated 0.16-20 µg/ml
T2 construct: also called Clq
Procedure: (§1) In principle, the ELISA plate is coated with concentration ranges of the antibody, to which human C1q or human pooled serum, as a source of C3, is added. C1q or […] binding is detected by an antibody directed against human C1q or […] followed by a peroxidase-labeled conjugate.

[3] = biological target: T3, human complement factor C3 (from human pooled serum) (human, UniProt P01024 23-1663, limits assumed); assay: C3 ELISA, antibody coated, human pooled serum; background OD405 0.098
T3 construct: The ELISA detects C3 (C3c) deposited on the coated antibody out of serum; also called C3c
Procedure: as §1

[4] = biological target: T4, E-selectin on E-selectin-CHO transfectants (UniProt P16581 22-610, limits assumed); assay: cell-based ELISA on E-selectin-CHO transfectants, OD405
T4 construct: whole, on cells; also called E-selectin-CHO cells; E-selectin transfectants
T4 sequence (looked up): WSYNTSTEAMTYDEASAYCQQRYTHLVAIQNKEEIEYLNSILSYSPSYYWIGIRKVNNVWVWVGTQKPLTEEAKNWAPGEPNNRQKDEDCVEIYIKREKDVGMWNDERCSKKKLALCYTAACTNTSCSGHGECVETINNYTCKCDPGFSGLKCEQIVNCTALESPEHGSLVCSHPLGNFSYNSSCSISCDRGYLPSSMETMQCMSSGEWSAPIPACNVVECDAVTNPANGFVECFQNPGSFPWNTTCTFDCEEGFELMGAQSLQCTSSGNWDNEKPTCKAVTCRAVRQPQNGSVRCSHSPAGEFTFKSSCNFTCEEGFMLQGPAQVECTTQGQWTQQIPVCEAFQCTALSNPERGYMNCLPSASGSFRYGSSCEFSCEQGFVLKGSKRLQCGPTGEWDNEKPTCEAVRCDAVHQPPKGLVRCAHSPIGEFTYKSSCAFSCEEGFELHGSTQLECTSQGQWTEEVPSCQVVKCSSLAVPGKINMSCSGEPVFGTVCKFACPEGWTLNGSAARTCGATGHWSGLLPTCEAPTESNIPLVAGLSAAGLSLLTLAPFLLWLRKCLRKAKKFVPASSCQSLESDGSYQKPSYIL
Procedure: (§2) In the cell-based ELISA P— and E-selectin-CHO-transfectants, after detaching the cells with cell-dissociation solution (Sigma C5914), were seeded into each well of 96 well plates (TC Microwell F96 Nunc 167008) adjusted to 100,000 cells/well and cultivated in respective media overnight at 37° C. (medium for P— CHO-transfectants: DMEM+10% FCS+2 mM Glutamine+Penicillin 100 U/ml/Streptomycin 100 μg/ml; medium for E-selctin transfecttants: HAM F-12+10% FCS+2 mM Glutamine+Penicillin 100 U/ml/Streptomycin 100 μg/ml+0.1% Fungizone+100 μg/ml Neomycin). […] After washing the wells (4 times), the bound antibodies were detected using the same steps as mentioned above for the cell-free ELISA.

[5] = biological target: T5, P-selectin on P-selectin-CHO transfectants (human, UniProt P16109 42-830); assay: cell-based ELISA on P-selectin-CHO transfectants, OD405
T5 construct: whole, on cells; not restated for the transfectant; also called P-selectin-CHO cells; P-selectin CHO cells
T5 sequence (looked up): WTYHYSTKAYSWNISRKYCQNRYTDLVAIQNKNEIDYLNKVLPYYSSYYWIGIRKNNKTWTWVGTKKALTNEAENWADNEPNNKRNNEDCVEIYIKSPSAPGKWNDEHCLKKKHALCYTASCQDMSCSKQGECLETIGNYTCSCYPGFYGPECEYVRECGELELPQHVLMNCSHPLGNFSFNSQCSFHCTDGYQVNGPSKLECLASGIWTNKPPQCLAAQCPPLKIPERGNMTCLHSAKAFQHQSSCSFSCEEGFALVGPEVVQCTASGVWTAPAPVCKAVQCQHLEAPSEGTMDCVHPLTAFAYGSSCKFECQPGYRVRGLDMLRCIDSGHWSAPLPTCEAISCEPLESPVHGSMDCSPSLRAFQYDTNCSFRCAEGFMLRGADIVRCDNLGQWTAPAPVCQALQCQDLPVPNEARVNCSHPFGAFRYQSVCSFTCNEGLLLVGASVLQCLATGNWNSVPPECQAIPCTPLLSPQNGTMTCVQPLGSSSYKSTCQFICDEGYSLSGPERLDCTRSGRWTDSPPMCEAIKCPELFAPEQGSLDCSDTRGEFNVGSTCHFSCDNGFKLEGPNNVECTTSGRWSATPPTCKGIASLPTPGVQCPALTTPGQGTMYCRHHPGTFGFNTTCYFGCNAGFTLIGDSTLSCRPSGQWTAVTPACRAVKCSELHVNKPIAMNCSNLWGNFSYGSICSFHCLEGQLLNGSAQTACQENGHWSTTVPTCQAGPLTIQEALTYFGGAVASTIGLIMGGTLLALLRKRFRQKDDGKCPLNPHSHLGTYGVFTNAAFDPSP
Procedure: as §2

[6] = biological target: T2, human complement factor C1q; assay: C1q ELISA, antibody coated; background OD405 0.079
Procedure: as §1

[7] = biological target: T6, P-selectin on thrombin-activated human platelets (human, UniProt P16109 42-830); assay: cell-based or functional assay
T6 sequence (looked up): T5 sequence (looked up)

[8] = biological target: T3, human complement factor C3 (from human …); assay: C3 ELISA, antibody coated, human pooled serum
Procedure: as §1

T2 sequence (P02745 23-245 limits assumed, chain 1 of 3): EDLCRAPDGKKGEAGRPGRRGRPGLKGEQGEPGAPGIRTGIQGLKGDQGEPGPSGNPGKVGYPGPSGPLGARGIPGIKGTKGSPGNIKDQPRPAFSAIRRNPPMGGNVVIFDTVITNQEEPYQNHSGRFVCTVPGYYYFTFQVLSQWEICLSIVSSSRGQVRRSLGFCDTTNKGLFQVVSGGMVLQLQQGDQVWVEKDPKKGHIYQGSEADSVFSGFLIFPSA
T2 sequence (P02746 28-253 limits assumed, chain 2 of 3): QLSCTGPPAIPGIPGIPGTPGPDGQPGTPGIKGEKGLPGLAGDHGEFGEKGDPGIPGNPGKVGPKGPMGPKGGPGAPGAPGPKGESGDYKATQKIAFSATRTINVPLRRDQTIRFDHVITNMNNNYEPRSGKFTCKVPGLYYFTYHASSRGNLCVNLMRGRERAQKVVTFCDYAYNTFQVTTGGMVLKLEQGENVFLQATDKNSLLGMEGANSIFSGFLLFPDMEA
T2 sequence (P02747 29-245 limits assumed, chain 3 of 3): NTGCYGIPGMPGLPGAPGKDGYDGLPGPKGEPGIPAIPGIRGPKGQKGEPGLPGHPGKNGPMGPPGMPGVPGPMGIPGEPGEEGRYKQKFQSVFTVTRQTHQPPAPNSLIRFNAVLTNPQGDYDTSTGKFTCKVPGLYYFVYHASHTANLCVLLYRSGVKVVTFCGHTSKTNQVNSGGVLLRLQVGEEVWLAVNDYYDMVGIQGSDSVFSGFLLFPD
T3 sequence (P01024 23-1663 limits assumed): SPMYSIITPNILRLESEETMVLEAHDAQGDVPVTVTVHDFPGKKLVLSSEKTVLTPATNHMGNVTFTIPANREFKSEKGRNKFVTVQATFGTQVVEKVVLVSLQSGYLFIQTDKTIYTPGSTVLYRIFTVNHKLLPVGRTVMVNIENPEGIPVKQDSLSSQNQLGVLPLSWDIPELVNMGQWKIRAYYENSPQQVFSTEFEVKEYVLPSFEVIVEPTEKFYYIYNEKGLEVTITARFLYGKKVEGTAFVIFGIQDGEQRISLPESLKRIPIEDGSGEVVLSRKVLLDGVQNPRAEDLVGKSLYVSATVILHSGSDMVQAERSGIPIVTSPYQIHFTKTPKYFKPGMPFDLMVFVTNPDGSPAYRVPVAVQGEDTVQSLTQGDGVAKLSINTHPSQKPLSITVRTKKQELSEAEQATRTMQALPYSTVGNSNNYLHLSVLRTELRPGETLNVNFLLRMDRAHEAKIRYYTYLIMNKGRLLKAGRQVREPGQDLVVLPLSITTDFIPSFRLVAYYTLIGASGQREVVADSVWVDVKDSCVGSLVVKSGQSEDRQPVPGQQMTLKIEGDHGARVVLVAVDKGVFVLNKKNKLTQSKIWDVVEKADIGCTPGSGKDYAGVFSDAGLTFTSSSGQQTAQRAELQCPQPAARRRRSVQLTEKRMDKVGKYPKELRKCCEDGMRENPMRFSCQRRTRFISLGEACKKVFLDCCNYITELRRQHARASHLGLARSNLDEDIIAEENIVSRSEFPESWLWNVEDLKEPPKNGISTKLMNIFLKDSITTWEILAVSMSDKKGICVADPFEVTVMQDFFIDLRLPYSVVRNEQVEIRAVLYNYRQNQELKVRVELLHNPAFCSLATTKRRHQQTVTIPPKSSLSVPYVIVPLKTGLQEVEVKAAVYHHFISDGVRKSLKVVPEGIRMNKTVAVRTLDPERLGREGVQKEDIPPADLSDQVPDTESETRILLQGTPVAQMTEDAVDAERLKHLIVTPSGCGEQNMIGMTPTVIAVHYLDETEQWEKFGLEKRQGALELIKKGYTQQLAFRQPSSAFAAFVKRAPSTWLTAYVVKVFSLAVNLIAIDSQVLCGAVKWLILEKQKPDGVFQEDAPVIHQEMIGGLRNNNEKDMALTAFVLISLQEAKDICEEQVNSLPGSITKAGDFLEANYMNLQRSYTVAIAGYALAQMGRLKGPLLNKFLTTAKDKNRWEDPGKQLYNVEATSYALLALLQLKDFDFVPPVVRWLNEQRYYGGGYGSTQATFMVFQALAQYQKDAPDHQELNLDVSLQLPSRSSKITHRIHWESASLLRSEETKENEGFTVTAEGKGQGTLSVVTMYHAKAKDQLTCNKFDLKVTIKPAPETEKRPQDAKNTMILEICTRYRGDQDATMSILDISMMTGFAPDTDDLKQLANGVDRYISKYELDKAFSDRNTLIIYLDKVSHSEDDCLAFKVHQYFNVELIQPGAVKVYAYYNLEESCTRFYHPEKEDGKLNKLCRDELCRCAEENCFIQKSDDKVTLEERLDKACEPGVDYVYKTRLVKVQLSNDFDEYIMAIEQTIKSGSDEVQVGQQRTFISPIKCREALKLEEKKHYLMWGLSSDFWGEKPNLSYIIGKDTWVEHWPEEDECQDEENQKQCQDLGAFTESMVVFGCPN
T1 sequence (P08637 17-254): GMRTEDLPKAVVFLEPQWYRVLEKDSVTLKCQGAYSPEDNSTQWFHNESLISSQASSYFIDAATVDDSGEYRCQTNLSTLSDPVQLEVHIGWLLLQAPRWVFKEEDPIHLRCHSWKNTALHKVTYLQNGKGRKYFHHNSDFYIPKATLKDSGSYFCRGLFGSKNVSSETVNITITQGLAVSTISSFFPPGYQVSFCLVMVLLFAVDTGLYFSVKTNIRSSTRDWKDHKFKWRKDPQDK

binding result [1]: no binding (tested: 10 µg/ml) | binding result [2]: no binding | Bmax (OD405 at 10 µg/ml) [3]: 0.156 OD405 | binding result [4]: no binding (tested: 100 µg/ml) | EC50 (read off the curve) [5]: ~0.03 µg/mL | Bmax (OD405 at 10 µg/ml) [6]: 0.0119 OD405 | IC50 (read off the curve), rosetting assay with thrombin-activated human platelets and HL60 cells [7]: ~0.08 µg/mL | binding result [8]: no binding
B1: HuMab 002 Fc variant IgG1v1 (PVA-236; GLPSS331: E233P; L234V; L235A; delta G236; A327G; A330S; P331S) (antibody)
heavy: EVQLVESGGGLVRPGGSLRLSCAASGFTFSNYDMHWVRQATGKGLEWVSAITAAGDIYYPGSVKGRFTISRENAKNSLYLQMNSLRAGDTAVYYCARGRYSGSGSYYNDWFDPWGQGTLVTVSSASTKGPSVFPLAPSSKSTSGGTAALGCLVKDYFPEPVTVSWNSGALTSGVHTFPAVLQSSGLYSLSSVVTVPSSSLGTQTYICNVNHKPSNTKVDKKVEPKSCDKTHTCPPCPAPPVAGPSVFLFPPKPKDTLMISRTPEVTCVVVDVSHEDPEVKFNWYVDGVEVHNAKTKPREEQYNSTYRVVSVLTVLHQDWLNGKEYKCKVSNKGLPSSIEKTISKAKGQPREPQVYTLPPSRDELTKNQVSLTCLVKGFYPSDIAVEWESNGQPENNYKTTPPVLDSDGSFFLYSKLTVDKSRWQQGNVFSCSVMHEALHNHYTQKSLSLSPGK
light: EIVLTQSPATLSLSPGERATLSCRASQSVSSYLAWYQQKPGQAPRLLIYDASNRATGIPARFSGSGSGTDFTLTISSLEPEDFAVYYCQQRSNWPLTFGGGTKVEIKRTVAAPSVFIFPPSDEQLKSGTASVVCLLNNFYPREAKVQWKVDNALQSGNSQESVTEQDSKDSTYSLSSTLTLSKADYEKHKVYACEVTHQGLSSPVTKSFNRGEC
notes: copies: 2 + 2
